Experiment: soluble on expression in E. coli; label from the status in PepcDB or PDB records

| Sequence | soluble on expression in E. coli |
| --- | --- |
| VDQVFVVGHKNLDMDALGSAVGMQLFASNVIENSYALYDEEQMSPDIERAVSFIEKEGVTKLLSVKDAMGMVTNRSLLILVDHSKTALTLSKEFYDLFTQTIVIDHHRRDQDFPDNAVITYIESGASSASELVTELIQFQNSKKNRLSRMQASVLMAGMMLDTKNFTSRVTSRTFDVASYLRTRGSDSIAIQEIAATDF | not soluble |
| MGREFLDLFEQWAESYDRSVEGYDEQYRDVFAGYDRILSTVADKAGQVVLEFGVGTGNLTKKLLERGKRVYGIEPSAPMRKKAAEKLNGRAVILEGDFLQFPTPPEPIDTIASTYAFHHLTDAEKDEALAKYSQLLHPGGKIVFADTAFRDKEAFRQAIEEARARGFHDLADDLEREYYTTLDVLASLFSKHGFSASFAQQNAFVWVMEAVKQTT | not soluble |
| MAKQELGTKRVDPETGKKFYDLNRDPIVSPYTGISYPRSYFEVAAAEANSEEEVDTEELDTALEKSAFMLLEDDGDDPKDDDLPDLEDSDVDLGDDDDTFLSHDEDDEDDDVTDILGGGVSKDDDS | not soluble |
| MSNRDQLFKAPPFENHSPLTWYQAASQLPNFIRDDAQAAAIEHLDRLWTELMMFKRKRNRFLGRSLRSPQVPKGLYFYGGVGRGKSFLMDAFFGCLPYRRKRRVHFHAFMAEIHQRLKTLKSESNPLKSVAAEIAKETRVLCFDEFHVSDIADAMILGRLLENLLNEGVVLVATSNYAPSELYPQGQNRSSFLPTIALIESSLTVLNVDGGEDYRLRTLRPAEIFFTPANEENEAKLAKLFKEMTGITDLNPGISTIHGREIPHKAESGRAIWFDFRALCFGPRSQSDYLYLAEHYEMVFISGLEQLSPQEKAEARRLTWLIDVLYDFRVKLCATGAVDVNHIYTEGDFAEEFTRTASRMVEMQSEVYLEQPHLTLSPKASGG | not soluble |
| FRFCFKQMNKSQHELVLGWIHQPHINEWLHGDGLSNTIKDLHEFLNDGKPWATHWIAYDNEIPFAYLITSEIEKSEEYPDGAVTLDLFICRLDYIGKGLSVQMIHEFILSQFSDTKIVLINPEISNERAVHVYKKAGFEIIGEFIASWHPVPHYKMKLCI | not soluble |
| GPLGSVGSWECPVCCVSNKAEDSRCVSCTSEKPGLVSASSSNSVPVSLPSGGCLGLDKFKKPEGSWDCEVCLVQNKADSTKCIACESAKPGT | soluble |
| MNPVEPADLVDIREQLHSGCHIVQAKGFSFLANRIINKELDAKDEKKYRKLLFDCFVVEEDILFRFLIDTLPILLIRGSNSPETLWEEFTLRAPRIRRIQRAFGMMISHCKPSFSKFLDVAARIDSEILTKICISSEFGYNFYQYIAVLSFTGLLSDSQKRLVGNCGLAQNVFLKHQPDLYPTGHESEHDPESFLRECSAEDLLSHPLHNIDPFQRHKLMRDRPAVLESKNLPNHILYLPYAVMLSQYKQVIVKLVEQSKMADHKLASENRVSGCRDTYSFAAPDFSDQDLTFETFMYHTIATGKVTSFIKYVENYHESLGILQKAHLLPALTVFLTHSSTNPSLQERICKLIALFVKKAPENADQFVLYFITLYQKPFFPIHRHLLLETIKDLFVNRFVISSAFGFLKITACLEGDRVRSLECLAEIIPKFTQLFEPMTSLCALKRDDGSDESFYAELHLLKECCKVTEDNEKALSKISNSLKECTGPRLAAIVDAVTDLIKCGVLDTIGARSMLTKRARQRGCEQSLGTYCRLLSTSTIPEENEEQARILRMSCIEELANLKQNDNHTVASEAWRSLGAFELDELEKGLKINPAQFATLFVKLRKEVQNGFIDFLSLCLHKEVESYQRPLYNTSAQDVNVSPLLTKVDTFKDKLIIENKNEPWFWSASLSLSASILQLTGPTNRAQASVRLLQSCLENVVPASSHDEMIRLMAGWRICIREVLHVLTESKSNDILWARDQIINTGRTSLTNKAESVDNIMMMLTALADAIDQQLRNIENDEQVEEVSKAQNPWLLSVYEFVATRLPKNLKEKRVAKNEPIYQLITHSNKSSLLTAIFCLRLLYLNPSVAAFYNDEDVGLTDDRMLVSLLQDSTKELKKEEIPDRKMMWVTAEAYGASQMSAKAFEVAYNIVIDEKTEKYEETELVDDESIEKFFNGLISSPKKDLKEIEQNNKKVLEKLWNNGNNEVRRKIYEGLAELALISGTGRSKMVIPAGKLPEGILKGILQLFDKKINVKPETLRNIIRCLVNHRRNDGRFLPPIDWMKFLERSEWTKADTDARLAMITLACEQNISEVIFHFSSSLTVKELLVLSENLRSVSKLFPRKEFTMILVQMAVQARKEDVETSKKLSMALSDLQKDSTVHNFLMKCLPKLFDISGITDPILNSIKDPDAFGGQISNCFDVWLEARRGEKMNIRRICDIFGKEESNSKKNAICALISHESRTLSRKMRFEKLLDVITASRIARTFGGSMQSFFSIFLSIIVSNNDTVEIPLCWFENQEHVPAMMIAAKQPFYKWIVEAPEMKSNAHHFGSFLSYYVDGPEKQYYEYWHTEGATDLLAMIVSAYPNETFPNLLTQTDEFWKSLLGIADVGK | not soluble |
| MGSDKIHHHHHHMHSKTFGDVSIDEMVSRIKEFILKDNNCNYKITIGTDSQNKNLTKVVVVVAIHRIGSGGIFFYDIKHVHKISNVRQKIYYETALSLELASKVSHAFAEANIQEDIEIHADIGSNRKGKTYPLINEITGWITGEGYKYQIKPYSYAASCIADKISK | not soluble |
| GSHMAPADYFRVLVQQFEVQLQQYRQQIEELENHLATQANNSHITPQDLSMAMQKIYQTFVALAAQLQSIHENVKVLKEQYLSYRKMFLGDAG | soluble |
| MGIFETMSQVRRLPQALAAAVATPPALAGSGTLRGLIGLDDSLGEAVTTRAEALTIPAVLRARNLLSTTVARTPLVCDGTLPPFVPVAAPPGAATMQTPFHRMLATADDLLFNGVACWALDRDESGTCIGAIHIPLDTWQIEENTVRVNGKAVDPMEVCIFVGIHGGLLTHASETFTDARNLVRAAARVAQNPAALIELRQTNNAQLSPDDVDRIINGYVAARRGRNSGVGFSSSGLEVHEHEMAKENLLIEGRNAAAVDVARAMNVPAAFIDATVGGTSLSYQNAASRMIELVTFGVEPLMSAIEARLNQPDMHADHLANPLKFDPAALLDAIPTTPTIGAQPHGENS | not soluble |
| MDVKHNPKKEVIERSLNATEKAIESIREGDLVRRHTVLELRDMQISMSEDFDQIRGMMHELDHQIDKERAENSKWMNRKMEKAKATADQALASTLMVKDVQLLEKKVNILKDSVIQVNKAFYKYEKDVDMKDLMDQVTDMVHRTEKKEQDALEPHATDEQAIEKAFRGAIEGLYGLKSSNPKVMEEAKLLAGEMRVFRDAAANKNFHSMISKVAPGKSGVSLDSSSSESSFSTSASSSLAKPNGKSSSSAASSISGSH | not soluble |
| MSNDVYIIGAGETKFGELWDKSLRDLAVEAGLEAIKDANIYSKDLQMLYASNSLAGTINEQSNIAALAADFSGIAENHVPAVRVEASTASGGAAVREAYLAIKSGEYDVVMVGGVEKMTDIYGTEIIDVQSSILDREWESFNGATPAAMAAIAARRYMHDFNVEREAISMVAVNDHANASLNPDAQYRNKITVDQVLNSDPVAEPLNVFDCSPITDGASAIILASEGFVKKNRIDGVRIL | not soluble |
| MILVDSDVLIAHLRGVVAARDWLVSARKDGPLAISVVSTAELIGGMRTAERREVWRLLASFRVQPATEVIARRAGDMMRRYRRSHNRIGLGDYLIAATADVQDLQLATLNVWHFPMFEQLKPPFAVPGHRPRA | not soluble |
| GSPEFMIGEEVPSDQYYWAPLAQHERGSLASLDSLRKGGPPPPNWRQPELPEVIAMLGFRLDAVKSNAAAYLQHLCYRNDKVKTDVRKLKGIPVLVGLLDHPKKEVHLGACGALKNISFGRDQDNKIAIKNCDGVPALVRLLRKARDMDLTEVITGTLWNLSSHDSIKMEIVDHALHALTDEVIIPHSGWEREPNEDCKPRHIEWESVLTNTAGCLRNVSSERSEARRKLRECDGLVDALIFIVQAEIGQKDSDSKLVENCVCLLRNLSYQVHREIPQAERYQEAAPNVANNTGTSPARGYELLFQPEVVRIYISLLKESKTPAILEASAGAIQNLCAGRWTYGRYIRSALRQEKALSAIADLLTNEHERVVKAASGALRNLAVDARNKELIGKHAIPNLVKNLPGGQQNSSWNFSEDTVISILNTINEVIAENLEAAKKLRETQGIEKLVLINKSGNRSEKEVRAAALVLQTIWGYKELRKPLEKEGWKKSDFQVNLNNASRSQSSHSYDDSTLPLIDRNQKSDKKPDREEIQMSNMGSNTKSLDNNYSTPNERGDHNRTLDRSGDLGDMEPLKGTTPLMQKI | soluble |
| MNRLAHHQGIYKFFFTLGLTLQLSKPVIKHLIHIVDALTTKGFSGTLTDIHHWSFHPNHRTTLSHFFTKSPWNEERLLGKLQEWILRRIERKNQPLFVSIDDTICQKTKPSSRATHAIEGCDWHYSHKDHQSVWGHSLVWLMVHTFTQAFPFAFRLYDKKAGRSKIDLAIEMLSSIKVKLTQPVYVLMDSWYPSKTLIEACLKQGFHVIAMLKTNRILYPKGIAIQAKQFARYIEPKDTRLVTVGQERYRVYRYEGAIHGLDDAVVLLAWKADQPMTPEHLHCVLSTDRGLGDEDILRYYAQRWTIECFFRQAKDQLKLDGYRVRHVRAVKRYWAVVLLASVYSIAESRQTLSAGLELLRSRKDHSVVEFIYDAAKQGIPIDVIKKQLRIA | not soluble |
| MTANRQQYQVESVKESNLEEIVQFLIDNFAQTEAILASLKIDDDKICLKELTVMLRDLVQDSLQCSSTCVIRDVTTRQIDGIALACKTSIFDKQIDRLCAYEFREQRVRDAVEFLKYVFNKLDVMYYLNEHRLYKPVFVALVCVRKELWGRGIGTTLMNHVKSAARTDSSDGLISLCSNERGHKLMKTYCPTDFAAVRYDAFKGEHLRPPIVMRPPETFHSVYAMLSKFN | soluble |
| EVQLVESGGGLVQPGGSLRLSCAASGFTISSSSIHWVRQAPGKGLEWVAWVLPSVGFTDYADSVKGRFTISADTSKNTAYLQMNSLRAEDTAVYYCARRVCYNRLGVCAGGMDYWGQGTLVTVSSASTKGPSVFPLAPSSKSTSGGTAALGCLVKDYFPEPVTVSWNSGALTSGVHTFPAVLQSSGLYSLSSVVTVPSSSLGTQTYICNVNHKPSNTKVDKKVEPKSCDKTH | soluble |
| LSDKLMERLKERAEGIFVSGPPGSGKSTFVAALAEFYRSQGKIVKTMESPRDLQVSKEITQYAPLEGDMEKTCDILLLVRPDYTIYDEVRKTRDFEIFADMRMAGVGMVGVVHASKPIDAIQRLIGRVELGVIPQVVDTVIFIKDGKIQKVYEIDFTVKVPYG | not soluble |
